In paper PMC3530481 one finds Kd data, which are given here for one molecule.

For this assay, the target named is collagen VI tetramers from bovine cornea (bovine). The assay is described as follows: ELISA; solid-phase binding: collagen VI tetramers coated (10 ug in 100 ul TBS, overnight 4 C), recombinant WARP dimer 0-1 uM in TBS, 1 h at room temperature, detected with sheep anti-WARP serum; Scatchard analysis, apparent Kd. (An ELISA detects its analyte on a solid surface through an enzyme-linked reagent.)

B1: recombinant human WARP (von Willebrand factor A-domain related protein), dimer (natural protein)
chain: ERGPPASAPRGDLMFLLDSSASVSHYEFSRVREFVGQLVAPLPLGTGALRASLVHVGSRPYTEFPFGQHSSGEAAQDAVRASAQRMGDTHTGLALVYAKEQLFAEASGARPGVPKVLVWVTDGGSSDPVGPPMQELKDLGVTVFIVSTGRGNFLELSAAASAPAEKHLHFVDVDDLHIIVQELRGSILDAMRPQQLHATEITSSGFRLAWPPLLTADSGYYVLELVPSAQPGAARRQQLPGNATDWIWAGLDPDTDYDVALVPESNVRLLRPQILRVRTRPGEAGPGASGPESGAGPAPTQLAALPAPEEAGPERIVISHARPRSLRVSWAPALGSAAALGYHVQFGPLRGGEAQRVEVPAGRNCTTLQGLAPGTAYLVTVTAAFRSGRESALSAKACTPDGPRPRPRPVPRAPTPGTASREP
As to B1, the Kd is 22 nM.
